A word on the Kd: it is the equilibrium constant for the complex coming apart.

Kd data for one molecule are collected here from patent US20160168268A1 (University of California, published 2016).

The target of this test is T1, human IgE (human, UniProt P01854-1 1-428, FITC label in the BMMC experiments).
T1 construct: also called standard IgE; myeloma IgE
Put plainly: method not stated.

T1 sequence (P01854 other isoform, or with tags, fused parts or gaps): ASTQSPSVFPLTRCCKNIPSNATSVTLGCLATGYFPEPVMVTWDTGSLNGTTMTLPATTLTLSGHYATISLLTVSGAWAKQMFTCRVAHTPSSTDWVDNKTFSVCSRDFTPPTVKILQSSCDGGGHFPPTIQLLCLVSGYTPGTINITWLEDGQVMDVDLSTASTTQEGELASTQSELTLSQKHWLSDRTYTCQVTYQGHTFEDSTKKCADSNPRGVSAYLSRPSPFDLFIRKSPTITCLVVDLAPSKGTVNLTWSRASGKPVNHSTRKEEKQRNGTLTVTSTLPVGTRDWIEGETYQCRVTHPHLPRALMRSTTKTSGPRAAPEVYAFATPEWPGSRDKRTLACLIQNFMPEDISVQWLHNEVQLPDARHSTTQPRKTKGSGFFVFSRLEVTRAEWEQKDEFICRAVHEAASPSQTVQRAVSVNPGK

B1: monoclonal anti-human IgE antibody P6.2 (antibody, V domains shown)
VH: QVQLQQSGAELVRPGTSVKVSCKASGYAFTNYLIEWVKQRPGQGLEWIGVINPGSGFTKYNEKFKGKATLTADKSSSTAYMHLSSLTSDDSAVYFCAREDVYSWFAYWGQGTLVTVSA
VL: DIVLTQSPASLAVSLGQRATISCRASESVDSYGNSFMHWYQQKPGQPPKLLIYRTSNLESGIPARFSGSGSRTDFTLTINPVEADDVATYFCQQSYEDPFTFGSGTKLEIK
notes: also called mAb P6.2; mAb 6.2
In turn, B1 showed a dissociation constant (Kd) of 2540 nM.
